Data on three molecules can be found in publication PMC11187071, “The binding mechanism of an anti-multiple myeloma antibody to the human GPRC5D homodimer” (Nature Communications, 2024).

Series [1] addresses T1, WT GPRC5D expressed on HEK293T cells (Homo sapiens, UniProt Q9NZD1).
T1 construct: human GPRC5D, UniProt Q9NZD1; also called GPRC5D-WT; source: HEK293T, transiently transfected, on cells
Put plainly: flow cytometry on cells; HEK293T cells transiently transfected with WT or mutated GPRC5D, incubated with purified IgG150_18 at different concentrations for 60 min, detected with goat anti-human IgG (Fc specific)-FITC at 4 °C; % of total, normalized to expression level. Particulars: one partner purified. For orientation: A flow cytometer gives signals particle by particle.

Series [2] deals with the molecule itself. In words: cryo-EM structure; GPRC5D and scFv150_18 co-expressed in Hi5 insect cells, complex purified by TALON IMAC and Superdex 200 in LMNG/CHS, 20 mM HEPES pH 7.4, 100 mM NaCl; C2 symmetry, 3.34 Å.

In general, EC50 refers to the concentration that produces a half-maximal response. The low end stands for greater potency, the high end for weaker potency. As a reminder, the stoichiometry N is a count of units in the complex or per binding partner.

B1: IgG150-18 with a single mutation at Y228 (HCDR2) (antibody, V domains shown)
VH: QVQLVESGGGLVHPGGSLRLSCAASGFTFRSHSMNWVRQAPGKGLEWVSSISSDSTYTAYADSVKGRFTISRDNAKNSLYLQMNSLRAEDTAVYYCARSGGQWKYYDYWGQGTLVTVSS
VL: SSELTQDPAVSVALGQTVRITCQGDSLRSYYASWYQQKPGQAPVLVIYGKNNRPSGIPDRFSGSSSGNTASLTITGAQAEDEADYYCNSRDSSGNPPVVFGGGTKLTVL
notes: as the heavy chain variable domain of m3 (from scFv m2, PDB 8YZK) with a single mutation at Y228 (HCDR2; number as printed for the scFv); human IgG heavy chain constant region; as the light chain of m3; Residue number counts as in the scFv structure, not on the IgG heavy chain; also called Y228 mutant antibody; source: HEK-293F, transfected, purified (protein A, Superdex 200)
With B1, the binding result in series [1] is on record as “binds”.

B2: IgG150-18 (scFv150-18 cloned into human IgG format) (antibody, V domains shown)
VH: QVQLVESGGGLVHPGGSLRLSCAASGFTFRSHSMNWVRQAPGKGLEWVSSISSDSTYTYYADSVKGRFTISRDNAKNSLYLQMNSLRAEDTAVYYCARSGGQWKYYDYWGQGTLVTVSS
VL: SSELTQDPAVSVALGQTVRITCQGDSLRSYYASWYQQKPGQAPVLVIYGKNNRPSGIPDRFSGSSSGNTASLTITGAQAEDEADYYCNSRDSSGNPPVVFGGGTKLTVL
notes: heavy chain variable domain as in the scFv m2 (PDB 8YZK); human IgG heavy chain constant region; light chain variable domain as in the scFv m2 (PDB 8YZK); human light chain constant region; also called antibody150_18; scFv150_18 in its IgG format; source: HEK-293F, transfected, purified (protein A, Superdex 200)
Regarding B2, the EC50 in series [1] was approximately 4.6 nM.

B3: human GPRC5D (residues 1-298) with N-terminal BRIL fusion, cryo-EM construct (receptor, UniProt Q9NZD1 1-298, looked up)
chain: MYKDCIESTGDYFLLCDAEGPWGIILESLAILGIVVTILLLLAFLFLMRKIQDCSQWNVLPTQLLFLLSVLGLFGLAFAFIIELNQQTAPVRYFLFGVLFALCFSCLLAHASNLVKLVRGCVSFSWTTILCIAIGCSLLQIIIATEYVTLIMTRGMMFVNMTPCQLNVDFVVLLVYVLFLMALTFFVSKATFCGPCENWKQHGRLIFITVLFSIIIWVVWISMLLRGNPQFQRQPQWDDPVVCIALVTNAWVFLLLYIVPELCILYRSCRQECPLQGNACPVTAYQHSFQVENQELSR
notes: human GPRC5D, UniProt Q9NZD1, residues 1-298; Order at the N-terminus as printed: haemagglutinin signal peptide, Flag tag, BRIL, then GPRC5D 1-298, HRV 3C site, 10x His; Membranes were treated with iodoacetamide before solubilisation; also called hGPRC5D; GPRC5D homodimer; not shown: BRIL (thermostabilized E. coli apocytochrome b562RIL), N-terminal, kept; 10x His, C-terminal, kept
In the case of B3, the “stoichiometry N” value in series [2] was 2.
